Test results as given in US20130210709A1 (ANCHOR THERAPEUTICS, published 2013).
Square brackets hold non-standard residues; d marks the D form. Ends that are not written are not given here. * marks the point of attachment. Palmitoyl = CCCCCCCCCCCCCCCC(=O)*

B1: CXCR4 i3 loop compound 103 (peptide)
peptide: IIISKLSHSKGHQKRKALKT-NH2
modifications: not fully specified (N-terminus); also: dual lipid, backbone lipid not given here
B2: CXCR4 i3 loop compound 105 (peptide)
peptide: KLSHSKGHQKRKALKTTVIL-NH2
modifications: not fully specified (N-terminus); also: dual lipid, backbone lipid not given here
B3: CXCR4 i3 loop compound 101 (peptide)
peptide: Palmitoyl-SKLSHSKGHQKRKALK-NH2
SMILES: CCCCCCCCCCCCCCCC(=O)N[C@@H](CO)C(=O)N[C@@H](CCCCN)C(=O)N[C@@H](CC(C)C)C(=O)N[C@@H](CO)C(=O)N[C@@H](Cc1c[nH]cn1)C(=O)N[C@@H](CO)C(=O)N[C@@H](CCCCN)C(=O)NCC(=O)N[C@@H](Cc1c[nH]cn1)C(=O)N[C@@H](CCC(N)=O)C(=O)N[C@@H](CCCCN)C(=O)N[C@@H](CCCNC(=N)N)C(=O)N[C@@H](CCCCN)C(=O)N[C@@H](C)C(=O)N[C@@H](CC(C)C)C(=O)N[C@@H](CCCCN)C(N)=O
B4: CXCR4 i3 loop compound 100 (peptide)
peptide: Palmitoyl-HSKGHQKRKALKTTVI-NH2
SMILES: CCCCCCCCCCCCCCCC(=O)N[C@@H](Cc1c[nH]cn1)C(=O)N[C@@H](CO)C(=O)N[C@@H](CCCCN)C(=O)NCC(=O)N[C@@H](Cc1c[nH]cn1)C(=O)N[C@@H](CCC(N)=O)C(=O)N[C@@H](CCCCN)C(=O)N[C@@H](CCCNC(=N)N)C(=O)N[C@@H](CCCCN)C(=O)N[C@@H](C)C(=O)N[C@@H](CC(C)C)C(=O)N[C@@H](CCCCN)C(=O)N[C@H](C(=O)N[C@H](C(=O)N[C@H](C(=O)N[C@H](C(N)=O)[C@@H](C)CC)C(C)C)[C@@H](C)O)[C@@H](C)O
B5: CXCR4 i3 loop compound 104 (peptide)
peptide: Palmitoyl-IIISKLSHSKGHQKRKALKT
modifications: not fully specified (C-terminus); also: dual lipid, second lipid position not given here
B6: CXCR4 i1 loop compound 146 (peptide)
peptide: Palmitoyl-MGYQKKLRAMTDKYRL-NH2
SMILES: CCCCCCCCCCCCCCCC(=O)N[C@@H](CCSC)C(=O)NCC(=O)N[C@@H](Cc1ccc(O)cc1)C(=O)N[C@@H](CCC(N)=O)C(=O)N[C@@H](CCCCN)C(=O)N[C@@H](CCCCN)C(=O)N[C@@H](CC(C)C)C(=O)N[C@@H](CCCNC(=N)N)C(=O)N[C@@H](C)C(=O)N[C@@H](CCSC)C(=O)N[C@H](C(=O)N[C@@H](CC(=O)O)C(=O)N[C@@H](CCCCN)C(=O)N[C@@H](Cc1ccc(O)cc1)C(=O)N[C@@H](CCCNC(=N)N)C(=O)N[C@@H](CC(C)C)C(N)=O)[C@@H](C)O
B7: CXCR4 i1 loop compound 147 (peptide)
peptide: Palmitoyl-MGYQKKLRSATDKYRL-NH2
SMILES: CCCCCCCCCCCCCCCC(=O)N[C@@H](CCSC)C(=O)NCC(=O)N[C@@H](Cc1ccc(O)cc1)C(=O)N[C@@H](CCC(N)=O)C(=O)N[C@@H](CCCCN)C(=O)N[C@@H](CCCCN)C(=O)N[C@@H](CC(C)C)C(=O)N[C@@H](CCCNC(=N)N)C(=O)N[C@@H](CO)C(=O)N[C@@H](C)C(=O)N[C@H](C(=O)N[C@@H](CC(=O)O)C(=O)N[C@@H](CCCCN)C(=O)N[C@@H](Cc1ccc(O)cc1)C(=O)N[C@@H](CCCNC(=N)N)C(=O)N[C@@H](CC(C)C)C(N)=O)[C@@H](C)O
B8: CXCR4 i1 loop compound 149 (peptide)
peptide: Palmitoyl-MGYQKKLRSMTAKYRL-NH2
SMILES: CCCCCCCCCCCCCCCC(=O)N[C@@H](CCSC)C(=O)NCC(=O)N[C@@H](Cc1ccc(O)cc1)C(=O)N[C@@H](CCC(N)=O)C(=O)N[C@@H](CCCCN)C(=O)N[C@@H](CCCCN)C(=O)N[C@@H](CC(C)C)C(=O)N[C@@H](CCCNC(=N)N)C(=O)N[C@@H](CO)C(=O)N[C@@H](CCSC)C(=O)N[C@H](C(=O)N[C@@H](C)C(=O)N[C@@H](CCCCN)C(=O)N[C@@H](Cc1ccc(O)cc1)C(=O)N[C@@H](CCCNC(=N)N)C(=O)N[C@@H](CC(C)C)C(N)=O)[C@@H](C)O
B9: CXCR4 i1 loop compound 150 (peptide)
peptide: Palmitoyl-MGYQKKLRSMTDAYRL-NH2
SMILES: CCCCCCCCCCCCCCCC(=O)N[C@@H](CCSC)C(=O)NCC(=O)N[C@@H](Cc1ccc(O)cc1)C(=O)N[C@@H](CCC(N)=O)C(=O)N[C@@H](CCCCN)C(=O)N[C@@H](CCCCN)C(=O)N[C@@H](CC(C)C)C(=O)N[C@@H](CCCNC(=N)N)C(=O)N[C@@H](CO)C(=O)N[C@@H](CCSC)C(=O)N[C@H](C(=O)N[C@@H](CC(=O)O)C(=O)N[C@@H](C)C(=O)N[C@@H](Cc1ccc(O)cc1)C(=O)N[C@@H](CCCNC(=N)N)C(=O)N[C@@H](CC(C)C)C(N)=O)[C@@H](C)O
B10: CXCR4 i1 loop compound 153 (peptide)
peptide: Palmitoyl-MGYQKKLRSMTDKYRA-NH2
SMILES: CCCCCCCCCCCCCCCC(=O)N[C@@H](CCSC)C(=O)NCC(=O)N[C@@H](Cc1ccc(O)cc1)C(=O)N[C@@H](CCC(N)=O)C(=O)N[C@@H](CCCCN)C(=O)N[C@@H](CCCCN)C(=O)N[C@@H](CC(C)C)C(=O)N[C@@H](CCCNC(=N)N)C(=O)N[C@@H](CO)C(=O)N[C@@H](CCSC)C(=O)N[C@H](C(=O)N[C@@H](CC(=O)O)C(=O)N[C@@H](CCCCN)C(=O)N[C@@H](Cc1ccc(O)cc1)C(=O)N[C@@H](CCCNC(=N)N)C(=O)N[C@@H](C)C(N)=O)[C@@H](C)O
B11: CXCR4 i1 loop compound 129 (peptide)
peptide: Palmitoyl-AGYQKKLRSMTDKYRL-NH2
SMILES: CCCCCCCCCCCCCCCC(=O)N[C@@H](C)C(=O)NCC(=O)N[C@@H](Cc1ccc(O)cc1)C(=O)N[C@@H](CCC(N)=O)C(=O)N[C@@H](CCCCN)C(=O)N[C@@H](CCCCN)C(=O)N[C@@H](CC(C)C)C(=O)N[C@@H](CCCNC(=N)N)C(=O)N[C@@H](CO)C(=O)N[C@@H](CCSC)C(=O)N[C@H](C(=O)N[C@@H](CC(=O)O)C(=O)N[C@@H](CCCCN)C(=O)N[C@@H](Cc1ccc(O)cc1)C(=O)N[C@@H](CCCNC(=N)N)C(=O)N[C@@H](CC(C)C)C(N)=O)[C@@H](C)O
B12: CXCR4 i1 loop compound 152 (peptide)
peptide: Palmitoyl-MGYQKKLRSMTDKYAL-NH2
SMILES: CCCCCCCCCCCCCCCC(=O)N[C@@H](CCSC)C(=O)NCC(=O)N[C@@H](Cc1ccc(O)cc1)C(=O)N[C@@H](CCC(N)=O)C(=O)N[C@@H](CCCCN)C(=O)N[C@@H](CCCCN)C(=O)N[C@@H](CC(C)C)C(=O)N[C@@H](CCCNC(=N)N)C(=O)N[C@@H](CO)C(=O)N[C@@H](CCSC)C(=O)N[C@H](C(=O)N[C@@H](CC(=O)O)C(=O)N[C@@H](CCCCN)C(=O)N[C@@H](Cc1ccc(O)cc1)C(=O)N[C@@H](C)C(=O)N[C@@H](CC(C)C)C(N)=O)[C@@H](C)O
B13: CXCR4 i1 loop compound 148 (peptide)
peptide: Palmitoyl-MGYQKKLRSMADKYRL-NH2
SMILES: CCCCCCCCCCCCCCCC(=O)N[C@@H](CCSC)C(=O)NCC(=O)N[C@@H](Cc1ccc(O)cc1)C(=O)N[C@@H](CCC(N)=O)C(=O)N[C@@H](CCCCN)C(=O)N[C@@H](CCCCN)C(=O)N[C@@H](CC(C)C)C(=O)N[C@@H](CCCNC(=N)N)C(=O)N[C@@H](CO)C(=O)N[C@@H](CCSC)C(=O)N[C@@H](C)C(=O)N[C@@H](CC(=O)O)C(=O)N[C@@H](CCCCN)C(=O)N[C@@H](Cc1ccc(O)cc1)C(=O)N[C@@H](CCCNC(=N)N)C(=O)N[C@@H](CC(C)C)C(N)=O
B14: CXCR4 i1 loop compound 151 (peptide)
peptide: Palmitoyl-MGYQKKLRSMTDKARL-NH2
SMILES: CCCCCCCCCCCCCCCC(=O)N[C@@H](CCSC)C(=O)NCC(=O)N[C@@H](Cc1ccc(O)cc1)C(=O)N[C@@H](CCC(N)=O)C(=O)N[C@@H](CCCCN)C(=O)N[C@@H](CCCCN)C(=O)N[C@@H](CC(C)C)C(=O)N[C@@H](CCCNC(=N)N)C(=O)N[C@@H](CO)C(=O)N[C@@H](CCSC)C(=O)N[C@H](C(=O)N[C@@H](CC(=O)O)C(=O)N[C@@H](CCCCN)C(=O)N[C@@H](C)C(=O)N[C@@H](CCCNC(=N)N)C(=O)N[C@@H](CC(C)C)C(N)=O)[C@@H](C)O

target: T1, CXCR4 receptor (human, UniProt P61073 1-352); assay: cell-based or functional assay
T1 sequence (P61073 whole entry): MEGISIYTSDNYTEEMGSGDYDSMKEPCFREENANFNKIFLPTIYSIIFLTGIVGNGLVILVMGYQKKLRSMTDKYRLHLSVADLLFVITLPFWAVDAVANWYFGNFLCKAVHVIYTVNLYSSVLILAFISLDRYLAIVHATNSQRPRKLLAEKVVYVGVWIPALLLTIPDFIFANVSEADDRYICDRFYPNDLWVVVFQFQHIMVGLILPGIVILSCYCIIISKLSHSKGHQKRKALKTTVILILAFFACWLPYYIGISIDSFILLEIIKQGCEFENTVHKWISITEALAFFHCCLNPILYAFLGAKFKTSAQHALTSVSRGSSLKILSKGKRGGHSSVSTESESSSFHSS

Binder	AUC (% of vehicle), chemotaxis, CEM, 1.0 uM	Max (% of vehicle), chemotaxis, CEM, 1.0 uM	Peak Ratio, chemotaxis, CEM, 1.0 uM
B1	26.3 % of vehicle	24.4 % of vehicle	1
B2	23.8 % of vehicle	42.9 % of vehicle	0.2
B3	75.5 % of vehicle	74.9 % of vehicle	1
B4	49.3 % of vehicle	49.8 % of vehicle	0.04
B5	36.4 % of vehicle	56.4 % of vehicle	0.2

target: T1, CXCR4 receptor; assay: cell-based or functional assay; remark: another data set of the same source

Binder	IC50 (nM), calcium flux, CCRF-CEM [nM]
B6	170
Palmitoyl-[dM]GYQKKLRSMTDKYRL-NH2 [CXCR4 i1 loop compound 165]	112
B7	54
B8	126
B9	313
Palmitoyl-MGYQKKLRSMT[dD]KYRL-NH2 [CXCR4 i1 loop compound 163]	623
B10	> 10000
Palmitoyl-MGYQKKLRSMTD[dK]YRL-NH2 [CXCR4 i1 loop compound 162]	291
B11	197
B12	> 10000
Palmitoyl-MGYQKKLRSM[dT]DKYRL-NH2 [CXCR4 i1 loop compound 164]	322
Palmitoyl-MGYQKKLRSMTDK[dY]RL-NH2 [CXCR4 i1 loop compound 161]	> 10000
B13	298
Palmitoyl-MGYQKKLRSMTDKY[dR]L-NH2 [CXCR4 i1 loop compound 160]	5730
B14	> 10000
Palmitoyl-MGYQKKLRSMTDKYR[dL]-NH2 [CXCR4 i1 loop compound 159]	> 10000
